Assay results taken from the DeepSol protein solubility set.

assay: soluble on expression in E. coli; label from the status in PepcDB or PDB records

Soluble on expression in E. coli, not soluble:
MGSDKIHHHHHHMQIVPLHSSHYPHIASVFHQAVRAAAGKGYTQAQCEAWSRGVRDRRYWRSRLGRSLVLVALNVDEVVGFIDCELEHPDKGYIGHLYVAPTHQGRGIGGKLLDALIRQAPALGIGSLTTDASLHSEPLFAAKGFSNVGRYFQQKSGQVLPGFAMTLPLPFYIDRMQGSDLASIARLFHEAVQGASEYYSEAERHAWSAALRDEATWQGKLAPSKVWVARKDSGIMGFINLLPKSIGEAEIDCLFTSPVLTRCGVATSLYWVLEQQARRDGVRRLSVEASYFARPFFQSRGFTELSRNEHPRHGQILVNFSMEKWLSRPEGG
MGSDKIHHHHHHMQLITSLDIRNSEYLSKDRLISYHHQLRLIFSLGNQVKNVLEIGIFNSLLTDILKNNGYNVTTADVDPNLKPEMILDLTTDFSLPKDKFDAIVLFQVLEHFPYEQSEEALKKLAEATKKFLVISIPYCTQYLSFQIKSSFSGRPRYLLLSVPKFWSTKPVCDEHYWEMGLKGYPKKRILNSVANAGLTVKQEFIDPSYPYHYFLVLEKTNNI
MGSDKIHHHHHHMQLPFIAVDYVISVGLCAASTNPSQDKRIKKITVLAVSGKGDLPISFIENQALLDEAAMLTCMAYVDLNPIRAQLADTPEQSDHTSIQLRIRAALKGEQPKNLLPFIVNERDNQPNGIAFLLSDYLELVDDTGRIIRSDKRGAISENSAKLLARLNIPHDNWLKLTTEFGKLFRGPVGTLQELTDYCEHLEKRRRHFAKCCLHFHSN
MGSDKIHHHHHHMQNQPPFIINSTYHREESKDIEFKSIASQHPVKKIVNHAEEYITGFLNALVEGQLYIGIDDAGKILGVKLSRSERDEIQKIIPNKLRNTDPIVSPSLYDIAFYNVLNEEQKDIEDLFVVNISVLGVDESQFYRTSSREYFLYKTTGGSTYLKTGTDCIKLNTTEIAQEIQKRKQKYLKQELDNIDDKLLQNPDNRSLLKEKANIAKLMGDIEKMDESYKRLINLNPNNSRTRVDYASAHKSIGDLEGALDILEDALKVDGDNLSILKTKGEILLGSDSSDKVKEAFQTYETALKLNPEDYTIITQIGIALRKLGKYKESIKVFNLALAKSPHYRAAKYEKRITYHKMFEGGIRI
MGSDKIHHHHHHMQPLAQTLDRIRTISEYLKPEFGIPADGNWVSVADDFVSGSPWLTSMIAAEQTRLRTTSAAIIGSTLLQNYQWPIIPTVVACYLFEQRVPDLAPANTRVHFTAEHQADALALLGGRFSALPDDPAAEHPDATIVPDRAALRDAMRTGIESHFAVVIEHICAALGCKPRGLWLNVADAVANALIWLAQQHAAFDPTQIEAEVEAVIRVPGSPLNNRQVGLIQLSYGENRQLFLRRATCCYWYKTEGGEYCLTCPHRTAEDRQARLLAYMAQKYTQQQQLVQEEVTA
MGSDKIHHHHHHMQQSQTIYLMGTVIDVFVDHEESEKILEEVHQRLITYEQRFSANDSTSELMAVNQQAGQKPVSVHPELYQLIALGKKHSCDPASHLNVTIGPLVQTWRIGFKDARVPSEEEIKACLKKINPEKIHLNPLKQTVFLEEEGMKLDLGALAKGYIADLLIAYLKEVHVTSALINLGGNIVTLGPSTHQNKKWRIGIRNPQESRETISLLVEVANQSVVTSGIYERSLTEAGRVYHHLLDPTTGYPLETEMASLTIISDASVDGEIWTTRLFGYPIPEALEILNQLDGIEGVIITQDQQILYSSGLADTLHIIHS
MGSDKIHHHHHHMQSGMYVSLSSQRALDKRLTTIADNMANVNTVGFRGTEVKFDEVVSRTGNDQNAKIAFVSQGNDYLNTQSGEMLQTGGTLDFAVKGDAWFSIDTPAGPALTRDGRFTMTSTGQLVSVRGYSVLDAGGGPIQLDPNGGEPHVGADGTINQNGRQISQIGLFTADISKGYLRTENSGVITTDRPQAVVDDATIGVMQGYVEQSNVNGISQMTQLIQVSRAFESISASMSQTENSMSETIKTLGGSK
MGSDKIHHHHHHMQSLHGNCLIAYARHKYILTMVNGEYRYFNGGDLVFADASQIRVDKCVENFVFVSRDTLSLFLPMLKEEALNLHAHKKVSSLLVHHCSRDIPVFQEVAQLSQNKNLRYAEMLRKRALIFALLSVFLEDEHFIPLLLNVLQPNMRTRVCTVINNNIAHEWTLARIASELLMSPSLLKKKLREEETSYSQLLTECRMQRALQLIVIHGFSIKRVAVSCGYHSVSYFIYVFRNYYGMTPTEYQERSAQRLSNRDSAASIVAQGNFYGTDRSAEGIRL
MGSDKIHHHHHHMQTNDKVLKAFHSVKDVGSERSIVELGWLEVVSVKPPKIVVRLNLPNFAIAQRGQMAVDIRESIKSLEDIEEVQIEIGDSSPSKESPIGQAGHGSQSQGLTAIPKVKNVIAISSGKGGVGKSTVAVNLACALSQKGFKVGLLDADIYGPNTPYMLGVSEITPEVSGSGAEQKIIPIETCGIGMVSMGLLIDQNQPVIWRGPMLNGIIRQFLYQASWGERDFLIVDLPPGTGDAQLSLAQAVPMAGVIIVTTPQNVSLQDSRRGLAMFKQMNIPVLGVIENMTYFIPPDQPQKSYKIFGSGGGSQLAKENNVPLLSQIPIETDTFSGTGKDLPVVHTSRDSITAKVFLELAGTLCNALSVKQ
MGSDKIHHHHHHMRANRIGYVYSNKRFAGELLEFNTLEGYEYSFTYAASYIASGLPQIGYKLPITHEPYRRNYLPPFFANLMSEGWVRRHQARIARLDQDDKFGLLLGNGAELIGPVSVFTEYRGDNISAAIEVIAVPMKSLKGYQIDFPRCEFNEVAMESLGGVSISGVQPKMFLTYAEGNPKTLTNAVGMGPYIVKPSPNDFPELAENEFMVMQLCKAVGFNVAEHHLVPFSCGQLAYVTARFDLDRETGRRHEFIEDLASALNVAPGNKSSDTLSYEKAIKEAYQLSGGHVQLLKDGFLQVLMAYIVGNNDLHLKNISLSRASDSNRASGYTPIYDMVSVAPYRQYDNSGELSIWLLESEVERGFSTSSYEHYGYYTGHDFITFAEAIGLGERAGKVLMNDLGKKVAKARDKVIANAPGSEQLKQIISERITARLSTLTRPALR
MGSDKIHHHHHHMRATLAAAARDLNAAARFGADTACREGYHPVMLNTIIHGTPTDQPPLLIAHGLYGSGRNWGVIAKRLADERQVIAVDMRNHGLSPKTQSHSYVDLAEDLAEVIAAHGGRMDVVGHSMGGKAAMMLALRHPEAVNRLVVADIAPVSYQHTQAHFITAMRSVDLARVTRRSDAQEQLAAAGVDAMLQSFFTQSLDVENKSWRLNLDTLEREMPHILSFPEVETHWDGTALFLTGAHSDYVLPEHRPQIKRLFPAARFAKIPGAGHWLHAEKPREFEATVRGFLNA
MGSDKIHHHHHHMRFLAYFGHLNIDVLISVDSIPREGSVNVKDLRPRFGGTAGNFAIVAQKFRIPFDLYSAVGMKTHREYLAMIESMGINTGHVEKFEDESGPICYIATDGKKQVSFMHQGAMEKWKPQLADEYEYVHFSTGPNYLDMAKSIRSKIIFDPSQEIHKYSKDELKKFHEISYMSIFNDHEYRVFREMTGLSSPKVTTIVTNGERGSSLFMDGKKYDFPAIPSSGDTVGAGDSFRAGLYLALYNRRSIEKGMIYGTIIAHHVIDDGIENFSLNMEDLERETENYRRMFTKRS
MGSDKIHHHHHHMRFPMMELDEKIYRFFENRGRDVTVEYLNLGLGYTAVTTSDGGIGIAYTCFGAKESCSFMNSYYDFEGRPAVELLEKIKSTHPLERTMALALVNALNYEYALSLPEDKENRALFESFGIGEKTRVAMVGYFAPIAGMLGKMGALLEVIDISKKIGHQADFYDRLENWAQVAFITSTSILNSTTEDILRHAGKGVKTVMLGPSTPMIGEVFSHLPVHMLAGTVPLEKEKVLKAIRHGFGTREIQRFSRKSYLALF
MGSDKIHHHHHHMRGEVKKIIEAIGDIFIGHEDVIRKVLAVALVNGNILFEDYPGLGKTLLAKAFAKILGLKFKRIQFTPDLLPADIIGTKVWKPEKGAFEVVKGPIFTNILLADEINRAPPKTQSALLEAMEERQVTIEGETFKLERPFFIIATQNPLELEGTYPLPEAQLDRFLVRLNIGYPRNEEDELEILKARLRWGKDDPTSDISPIISREDFIRMQEEVERGVIIHDDILRYIVRLVRRIREDERIEAGPSPRGGLALMKLAKANAFIEGRSYVIPDDVKYFAVEALAHRIVLKPEYSLERGIAEEIIREVLEEVPVPKDIRY
MGSDKIHHHHHHMRIAQVAPLWERVPPPAYGGIELVVGLLTDELVRRGHEVTLFASGDSISLAKLVSVHPRALRLDRTIKDYSVYETLNLASAYERAEEFDIIHSHIGHGALAYANLVTTPTVHTLHGIFTSDNEKMFSFGKKQPYVSISDAQREPRLGLNCIATVYNGIDVSSYNFHAQPEDPPYLAFLGRMSPEKGAHLAIEIAKQAGWCLKMAGKVDVVDVEYFEKEIKPHIDGEQIQYLGEANHAQKNALMGGAFATLFPITWREPFGLVMVESMASGTPVIAMNLGSTEEVISHGKTGFLCNNLQECISAVDRVIELDRYTCRQYVEDLFSVEQMTDGYEAVYQKIIAERFSRNGHSRNLIALSSDRI
MGSDKIHHHHHHMRIAVIGGGSSYTPELVKGLLDISEDVRIDEVIFYDIDEEKQKIVVDFVKRLVKDRFKVLISDTFEGAVVDAKYVIFQFRPGGLKGRENDEGIPLKYGLIGQETTGVGGFSAALRAFPIVEEYVDTVRKTSNATIVNFTNPSGHITEFVRNYLEYEKFIGLCNVPINFIREIAEMFSARLEDVFLKYYGLNHLSFIEKVFVKGEDVTEKVFENLKLKLSNIPDEDFPTWFYDSVRLIVNPYLRYYLMEKKMFKKISTHELRAREVMKIEKELFEKYRTAVEIPEELTKRGGSMYSTAAAHLIRDLETDEGKIHIVNTRNNGSIENLPDDYVLEIPCYVRSGRVHTLSQGKGDHFALSFIHAVKMYERLTIEAYLKRSKKLALKALLSHPLGPDVEDAKDLLEEILEANREYVKLG
MGSDKIHHHHHHMRINHNISALNAWRNISQTQYSMSKTLERLSSGLRINRAGDDAAGLAISEKMRGQIKGLNMAIKNAQDAISLIQTAEGALTEVHSILQRMRELAVQAASDTNTDVDREQIQKEIDQLREEIDRIARTTEFNTKKLLDGKLESFRSQVDAKVVTGGNINVQLGSVSSAAVEGTYVIEVGQFNGAETSELDVKITLFTAGGYSTTVVTITVGSATVGNINFTWDTDVLSINDFGGALPKNEVVDSAVVRVEAIYTSASQLIFQIGANEGHNMVAGIDDMSAAALGLTTVSLDVTTQDAAERAIMVVDAAIHRVSTARAALGAVQNRLEHTISNLGVAAENLTAAESRIRDADMAKEMMEFTKQQILLQSSMAMLAQSNTLPQNVLQLMR
MGSDKIHHHHHHMRIQQLHYIIKIVECGSMNEAAKQLFITQPSLSNAVKDLEMEMGITIFNRNPKGITLTKDGVEFLSYARQIIEQTSLLEDRYKNHNTGRELFSVSSQHYAFVVNAFVSLLKRTDMTRYELFLRETRTWEIIDDVKNFRSEIGVLFINDYNRDVLTKLFDDNHLTASPLFKAQPHIFVSKSNPLATKSLLSMDDLRDFPYLSYDQGIHNSFYFSEEMMSQMPHNKSIVVSDRATLFNLMIGLDGYTVASGILNSNLNGDQIVAIPLDVPDEIDIVFIKHEKANLSKMGERFIEYLLEEVTFD
MGSDKIHHHHHHMRITEMADRVSRTGIGKLAGASHQLHTLNTNERDNSAMAETSIEWTDATWNPVAGCTILTAGCTNCYAMRMAARLEAMGTEKYQGLTRKTGGRAKWTGKVVTDPKSLAIPATWSKPRRVFVNSMSDLFHVDVPADFIRQVWTVMEETPRHTYQILTKRPEVMASVLTRGEFPVLSNVWLGTSVEDSRVLSRLDDLRRVPASIRFVSLEPLIGSVAGANLTDINWAIVGGESGPGARDMDPRWVDEIEAMCRRSGTAFFFKQWGGRNKKATGRTLNGRTYDEMPAAI
